B1: DNA-Binding protein, P69542 (parent)
chain: MIKVEIKPSQAQFTTRSGVSRQGKPYSLNEQLCYVDLGNEYPVLVKITLDEGQPAYAPGLYTVHLSSFKVGQFGSLMIDRLRLVPAK

Variants of: B1
Settings: Enterobacteria phage fd; pH 7; 25 °C; GdnHCl; CD; MOPS 50 mM; NaCl 100 mM; reversible: yes; structure 1VQB; whole UniProt chain shown

| Variant | ddG of mutation (higher = less stable) [kcal/mol] | denaturant m value [kcal/mol/M] | denaturant midpoint (higher = more stable) [M] | unfolding free energy [kcal/mol] |
| --- | --- | --- | --- | --- |
| V35M I47M | 3.5 | 3.8 | 1.65 | 5.5 |
| V35M I47F | 2.3 | 4.7 | 1.99 | 6.8 |
| V35M I47L | 1.6 | 4.1 | 2.14 | 7.4 |
| V35L I47L | 3.5 | 4.3 | 1.7 | 5.5 |
| V35L I47F | 3.94 | 4.3 | 1.6 | 5.1 |
| V35L I47M | 5.3 | 5 | 1.37 | 3.7 |
| V35L I47V | 5 | 4.2 | 1.32 | 4 |
| I47A | 7 | 4.3 | 0.87 | 2 |
| I47L | 0.6 | 3.7 | 2.43 | 8.4 |
| I47M | 2.1 | 3.9 | 2.02 | 6.9 |
| I47V | 2.5 | 3.9 | 1.91 | 6.5 |
| V35I I47F | 2 | 4.4 | 2.05 | 7 |
| V35I I47L | 1.1 | 4.2 | 2.27 | 7.9 |
| V35I I47M | 2.8 | 4.2 | 1.87 | 6.3 |
| V35I I47V | 3 | 4.1 | 1.8 | 6 |
| V35A I47L | 2.9 | 4.5 | 1.85 | 6.1 |
| V35A I47M | 4.4 | 4.2 | 1.47 | 4.6 |
| V35A I47V | 4.4 | 4.5 | 1.5 | 4.6 |
| V35F I47L | 4.1 | 3.9 | 1.51 | 4.9 |
| V35L | 2.7 | 4.5 | 1.9 | 6.4 |
| V35F | 3.1 | 3.8 | 1.76 | 5.9 |
| V35M | 1 | 3.6 | 2.33 | 8 |
| V35I | 0.6 | 3.6 | 2.44 | 8.4 |
| V35A | 2.2 | 3.9 | 2.01 | 6.9 |
| V35C | 1.4 | 4.1 | 2.21 | 7.7 |
| V35C I47C | 7.1 | 4.9 | 0.99 | 1.9 |

— FireProtDB (doi:10.1073/pnas.88.5.1706)
